Measured values as given in patent US11155602B2, “Polypeptides targeting HIV fusion” (priority 2015, dated 2021).

B1: 95 (protein)
chain: MASTSGVSDVPRDLEVVAATPTSLLISWDAPAVTVHSYHIQYWPLGWYQRYQVFSVPGSKSTATISGLKPEVEYQIRVYAETGGGGSQQSFGWIQIGYRTEGSGSHHHHHH
modifications: Adnectin
B2: 96 (protein)
chain: MGVSDVPRDLEVVAATPTSLLISWDAPAVTVQSYHIQYWPLGSYQRYQVFSVPGSKSTATISGLKPGVEYQIRVYAETGGADSDQSMGWIQIGYRTEGDKPSQHHHHHH
modifications: Adnectin
B3: 97 (protein)
chain: MGVSDVPRDLEVVAATPTSLLISWDAPAVTVHSYHIQYWPLGWYQRYQVFSVPGSKSTATISGLKPGVEYQIRVYAETRSGLADESFGWIQIGYRTEGDKPSQHHHHHH
modifications: Adnectin
B4: 98 (protein)
chain: MGVSDVPRDLEVVAATPTSLLISWDAPAVTVHSYHIQYWPLGSYQRYQVFSVPGSKSTATISGLKPGVEYQIRVYAETGGADSDQSMGWIQIGYRTEGDKPSQHHHHHH
modifications: Adnectin
B5: 107 (protein)
chain: MGVSDVPRDLEVVAATPTSLLISWDEHTDIYRYYRITYGETGGNSPVQEFTVPAMEHTATISGLKPGVDYTITVYAVTHVYPIMIHQYPISINYRTEIDKPSQHHHHHH
modifications: Adnectin
B6: 108 (protein)
chain: MASTSGVSDVPRDLEVVAATPTSLLISWDAPAVTVLEYQIDYHPAAVWHALQRFTVPGSKSTATISGLKPGVHYKISVTATTHADNESIMWHPISIYYRTEGSGSHHHHHH
modifications: Adnectin
B7: 105 (protein)
chain: MASTSGEFYHTKYPYDLEVVAATPTSLEISWRSPTRDWQWFRITYGETGGNSPVQEFTVAGPYRNAIISGLKPGVDYTITVYADVYMPSEGGLVVDTYHPISINYRTEGSGSHHHHHH
modifications: Adnectin
B8: 102 (protein)
chain: MASTSGSSPYLMPYDLEVVAATPTSLFIRWYGSASSIVKFRITYGETGGNSPVQEFTVGGTQLHATISGLKPGVDYTITVYAVHFEHKYSELWIGHPISINYRTEGSGSHHHHHH
modifications: Adnectin
B9: 109 (protein)
chain: MGVSDVPRDLEVVAATPTSLLISWDYPTVTPRYYRITYGETGGNSPVQEFTVPEYIGTATISGLKPGVDYTITVYAVTNDTTIYSISRPISINYRTEIDKPSQHHHHHH
modifications: Adnectin
B10: 99 (protein)
chain: MGHHHHHHGGVSDVPRDLEVVAATPTSLLISWDAPAVTVHSYHIQYWPLGSYQRYQVFSVPGSKSTATISGLKPGVEYQIRVYAETGGADSDQSFGWIQIGYRTPES
modifications: Adnectin
B11: 111 (protein)
chain: MGHHHHHHGGVSDVPRDLEVVAATPTSLLISWDAPAVTVHSYHIQYWPLGSYQRYQVFSVPGSKSTATISGLKPGVEYQIRVYAETGRGESDQSFGWIQIGYRTEES
modifications: Adnectin
B12: 112 (protein)
chain: MGHHHHHHGGVSDVPRDLEVVAATPTSLLISWDAPAVTVHSYHIQYWPLGSYQRYQVFSVPGSKSTATISGLKPGVEYQIRVYAETGRGESDQSLGWIQIGYRTPES
modifications: Adnectin
B13: 113 (protein)
chain: MGHHHHHHGGVSDVPRDLEVVAATPTSLLISWDAPAVTVHSYHIQYWPLGSYQRYQVFSVPGSKSTATISGLKPGVEYQIRVYAETGRGESDQSFGWIQIGYRTPES
modifications: Adnectin
B14: 114 (protein)
chain: MGHHHHHHGGVSDVPRDLEVVAATPTSLLISWDAPAVTVHAYHIQYWPLGFYQGYQVFSVPGSKSTATISGLKPGVEYQIRVYAETGLGDAHQSLGWIQIGYRTPES
modifications: Adnectin
B15: 110 (protein)
chain: MGHHHHHHGGVSDVPRDLEVVAATPTSLLISWDAPAVTVHSYHIQYWPLGSYQRYQVFSVPGSKSTATISGLKPGVEYQIRVYAETGRGESDQSLGWIQIGYRTEES
modifications: Adnectin
B16: 104 (protein)
chain: MASTSGTHWFYSIPHDLEVVAATPTSLTIAWEPPHHTAMGYRITYGETGGNSPVQEFTVPGGYTTAYISGLKPGVDYTITVYAAYYEREYSEHWISHPISINYRTEGSGSHHHHHH
modifications: Adnectin
B17: 100 (protein)
chain: MASTSGSSSYLMPSDLEVVAATPTSLYIHWYPIASTIINFRITYGETGGNSPVQEFTVPGSQVHATISGLKPGVDYTITVYAVHYEHKYSELWMGHPISINYRTEGSGSHHHHHH
modifications: Adnectin
B18: 103 (protein)
chain: MASTSGYTSYPIPYDLEVVAATPTSLYIHWYWIAATIISFRITYGETGGNSPVQEFTVPAGQDHATISGLKPGVDYTITVYAVHYEEEYSEFWTGHPISINYRTEGSGSHHHHHH
modifications: Adnectin
B19: 106 (protein)
chain: MASTSGQAYPEYYFVDLEVVAATPTSLLISWSKPYYNAYSYRITYGETGGNSPVQEFTVLGHDTRAVISGLKPGVDYTITVYAMFIEYIDQEIWHAHPISINYRTEGSGSHHHHHH
modifications: Adnectin
B20: 101 (protein)
chain: MASTSGSASYLIPSDLEVVAATPTSLSIYWYPVASTIINFRITYVETGGNSPVQEFTVPGSKSTATISGLKPGVDYTITVYAVHYEQKYSEYWIGHPISINYRTEGSGSHHHHHH
modifications: Adnectin
B21: 140 (protein)
chain: MGVSDVPRDLEVVAATPTSLLISWDLLEDMSRYYRITYGETGGNSPVQEFTVPTDAYTATISGLKPGVDYTITVYAVTQDSHVIELSYPISINYRTEIDKPSQHHHHHH
modifications: Adnectin
B22: 139 (protein)
chain: MGVSDVPRDLEVVAATPTSLLISWEDPEAAVRYYRITYGETGGNSPVQEFTVPINDLHSYLSGLKPGVDYTITVYAVTEATVMYVLDEPISINYRTEIDKPSQHHHHHH
modifications: Adnectin
B23: 364 (protein)
chain: MGHHHHHHGGSVSDVPRDLEVVAATPTSLLISWEYKVHPYRYYRITYGETGGNSPVQEFTVPSVLSTATISGLKPGVDYTITVYAVTYGDPSAPISINYRTEID
modifications: Adnectin
B24: 367 (protein)
chain: MGHHHHHHGGSVSDVPRDLEVVAATPTSLLISWEYKVHPYRYYRITYGETGGNSPVQEFTVPSVLSSAQLSGLKPGVDYTITVYAVTYGDDSAPISINYRTEID
modifications: Adnectin
B25: 366 (protein)
chain: MGHHHHHHGGSVSDVPRDLEVVAATPTSLLISWEYKVYHNRYYRITYGETGGNSPVQEFTVPSVLSTATISGLKPGVDYTITVYAVTYGDDSAPISINYRTEID
modifications: Adnectin
B26: 370 (protein)
chain: MGHHHHHHGGSVSDVPRDLEVVAATPTSLLISWEYKVHPYRYYRITYGETGGNSPVQEFTVPSVLSTATISGLKPGVDYTITVYAVTYGDDSKPISINYRTEID
modifications: Adnectin
B27: 365 (protein)
chain: MGHHHHHHGGSVSDVPRDLEVVAATPTSLLISWEYKVSGYRYYRITYGETGGNSPVQEFTVPSVLSTATISGLKPGVDYTITVYAVTYGDDSAPISINYRTEID
modifications: Adnectin
B28: 369 (protein)
chain: MGHHHHHHGGSVSDVPRDLEVVAATPTSLLISWEYKVHPYRYYRITYGETGGNSPVQEFTVPSVLSTATISGLKPGVDYTITVYAVTYGDPSAPISINYRTEID
modifications: Adnectin
B29: 368 (protein)
chain: MGHHHHHHGGSVSDVPRDLEVVAATPTSLLISWEYKVHPYRYYRITYGETGGNSPVQEFTVPSVLSTATISGLKPGVDYTITVYAVTYGTDSAPISINYRTEID
modifications: Adnectin
B30: 371 (protein)
chain: MGHHHHHHGGSVSDVPRDLEVVAATPTSLLISWEYKVHPYRYYRITYGETGGNSPVQEFTVPSVLSTATISGLKPGVDYTITVYAVTYGIDSTPISINYRTEID
modifications: Adnectin

Tested on: NL-Rluc virus
Assay: Combinectin potency assay: antiviral EC50, NL-Rluc virus in MT-2 cells, luciferase readout
Type: cell-based, HIV-1
Details: Anti-CD4 Adnectin, Table 2
Method: MT-2 cells, HEK 293T cells and the proviral DNA clone of […] were obtained from the NIH AIDS Research and Reference Reagent Program. MT-2 cells were propagated in RPMI 1640 medium supplemented with 10% heat-inactivated fetal bovine serum (FBS), 10 mM HEPES buffer pH 7.55, and 2 mM L-glutamine. HEK 293T cells were propagated in DMEM media supplemented with 10% heat-inactivated FBS, 10 mM HEPES buffer pH 7.55 and 2 mM L-glutamine. Recombinant NL-Rluc virus, in which a section of the nef gene from the proviral clone of NL4-3 was replaced with the Renilla luciferase gene, was constructed at Bristol-Myers Squibb. The replication-competent virus was harvested 3 days after transfection of HEK 293T cells with the modified pNL-Rluc proviral clone. Transfections were performed using Lipofectamine Plus (Invitrogen, Carlsbad, Calif.), according to manufacturer's instruction. Virus was titered in MT-2 cells using luciferase enzyme activity as a biomarker. The NL-Rluc virus used to infect MT-2 cells a multiplicity of 0.01 for 1 hour before adding to the peptides in 96-well plates. Peptides were serially diluted three-fold and 11 concentrations were plated in triplicate. After 4-5 days of incubation, cells were processed and quantitated for virus growth by the amount of expressed luciferase. Luciferase was quantitated using the Dual Luciferase kit from Promega (Madison, Wis.), with modifications to the manufacturer's protocol. The diluted Passive Lysis solution was pre-mixed with the re-suspended Luciferase Assay Reagent and then re-suspended in STOP & GLO® Substrate (2:1:1 ratio). A total of […] of the mixture was added to each aspirated well on assay plates and luciferase activity was measured immediately on a Wallac TriLux (Perkin-Elmer, Waltham, Mass.). The 50% effective concentration (EC50) was calculated by comparing the amount of luciferase produced in the presence of inhibitory peptide compared to wells where no peptide was added.

Row | Molecule | EC50
1 | B1 | 48 nM
2 | B2 | 7.8 nM
3 | B3 | 11 nM
4 | B4 | 4.9 nM
5 | B5 | 500 nM
6 | B6 | 170 nM
7 | B7 | 300 nM
8 | B8 | > 5500 nM
9 | B9 | 320 nM
10 | B10 | 8.5 nM
11 | B11 | 20 nM
12 | B12 | 18.4 nM
13 | B13 | 15.4 nM
14 | B14 | 12.6 nM
15 | B15 | 28.6 nM
16 | B16 | 500 nM
17 | B17 | 6 nM
18 | B18 | 255 nM
19 | B19 | 2400 nM
20 | B20 | > 400 nM

Same assay, conditions: Anti-N17 Adnectin, Table 3

Row | Molecule | EC50
21 | B21 | 950 nM
22 | B22 | 130 nM
23 | B23 | 89 nM
24 | B24 | 300 nM
25 | B25 | > 1000 nM
26 | B26 | 335 nM
27 | B27 | > 1000 nM
28 | B28 | 155 nM
29 | B29 | 62 nM
30 | B30 | 114 nM
